{
  "source": "the DeepSol protein solubility set",
  "data": [
    {"assay": "soluble on expression in E. coli; label from the status in PepcDB or PDB records", "values": [
      {"sequence": "MKALLEWIRKDMKPALGVTEPAAIALACAAARAMTEEPAECLLVRENSGIYKNAFTCGIPGTDKIGNEFAAALGCVAGDKEKGLLVLEEISDADVEAAKRFIEDGKVKVEVSQISSELFIYACVRTEHDCCEAEIRGQHTNICRLVKNGRVLLEKKTRELEETARPGSLTDYTMEEFFRFAKETPVEDLYFIREAYRVNLELAKAALTSERCTLTKSLLAFNGGTDVSGDLRATARFFAGAASEARVLGLDKPAMSITGSGNHGIICTMPLYAMYRVEHHSEESLLRATVLSYLITMYMKEYSGKLSAFCGCAVAAGTGMACAMTFMRGGGFEEVLATLNNMAASIVGMICTGGNHACCMKVLAAVDTAVTSTELALSGKCISPEHGVADVCPEKTMQNIGLIAYPGMTETERVILEIMQNKKGGAKGHEETD", "soluble on expression in E. coli": "not soluble"},
      {"sequence": "MKRTIQETPGPSSTTVPPPKKLNSQRNGSNLEPGSIYFTPIGGISVPRQESESSRSLDEILADIRPINSLHFSFMLDFEFLIGSYPPSLREYPITLVVGAPDAPDLLKCTKNQKLVTVVGASLPIPFGTHHTKMSILEDEDGRFHVIVSTANLVPDDWEFKTQQFYYNFGVKIASGTVPRSDFQDDLLEYLSMYRNQLDTWKQLLQKVDFSQISDRLIFSTPGYHTDPPTQRPGHPRLFRILSEKFPFDASYEHTERCTFVAQCSSIGSLGSAPINWFRGQFLQSLEGANPSPKQKPAKMYLVFPSVEDVRTSCQGYAGGCSVPYRNSVHARQKWLQGNMCKWRSNAKRRTNAVPHCKTYVKYDKKVAIWQLLTSANLSKAAWGEVSFNKSKNVEQLMIRSWEMGVLITDPSRFNIPFDYPLVPYSATDEPFVTDKKHEKPDILGCIWTPP", "soluble on expression in E. coli": "not soluble"},
      {"sequence": "MSEKLQKVLARAGHGSRREIESIIEAGRVSVDGKIAKLGDRVEVTPGLKIRIDGHLISVRESAEQICRVLAYYKPEGELCTRNDPEGRPTVFDRLPKLRGARWIAVGRLDVNTCGLLLFTTDGELANRLMHPSREVEREYAVRVFGQVDDAKLRDLSRGVQLEDGPAAFKTIKFSGGEGINQWYNVTLTEGRNREVRRLWEAVGVQVSRLIRVRYGDIPLPKGLPRGGWTELDLAQTNYLRELVELPPETSSKVAVEKDRRRMKANQIRRAVKRHSQVSGGRRSGGRNNNGLEHHHHHH", "soluble on expression in E. coli": "not soluble"},
      {"sequence": "VGPEAYGEASHSHSPASGRYIQQMLDQRCQEIAAELCQSGLRKMCVPSSRIVARNAVGITHQNTLQWRCFDTASLLESNQENNGVNCVDDCGHTIPCPGGVHRQNSNHATRHEILSKLVEEGVQRFCSPYQASANKYCNDKFPGTIARRSKGFGNNVEVAWRCYEKASLLYSVYAECASNCGTTWYCPGGRRGTSTELDKRHYTEEEGIRQAIGSVDSPCSEVEVCLPKDENPPLCLDESGQISRT", "soluble on expression in E. coli": "soluble"},
      {"sequence": "MSLSKFTEMMKNRRSIYALGENLPISKEEVTALVKEVVRESPTAFNSQTQRVVFLFGDAHKKLWAMTEDALKPLTPAEAFPNTQAKLQGFAAGAGTILFFEDTDIVKNLQDSFPLYADNFPVWSEQATGLTQANVWTALAQENIGANLQHYNPVIDEAVAAEWSIPANWNLRAQMVIGSIEAPAGEKEYMEDSARFKEFNEGGSHHHHHH", "soluble on expression in E. coli": "soluble"},
      {"sequence": "VLSRIQFVSRFGSNLVHIEGVKGSGKSWLAQRYLEKWCDDADQVLLMCHPNQSIQQQRGIILKQVVRDPLFNESDSVVDSVGRMLAGEKCNLVLAIDDAHLLSSELLSELWLLVQKAQSAPNWQINILLFAEKGKLTQTLSQMSYGQDNKPVDIDINP", "soluble on expression in E. coli": "not soluble"},
      {"sequence": "MGSDKIHHHHHHMQFTINHRTHYLYTDVVNYTIQKLRLTPQDGFGQRVKRWEIRVNGHLQRHDDAYGNAEHLLVLDTPHEEINILATGEVETGLDTPPAHDLLPREIYLRTTALTATDATLRNFAEQFRYDRFTGQILDEMMHAIVDKVPYYRGVTNVNTPAAEAFRSGHGVCQDHAHIFIACCRYLGIPARYVSGYLFTDDGSLMESHAWADACLPSGWISFDVSNRCRTNGVHVRLATGLDYSDACPVSGMRVGGGLETMTVGVHVSQLQSQQ", "soluble on expression in E. coli": "not soluble"},
      {"sequence": "MGSDKIHHHHHHVIRSLWISKTGLDAQQTQMDVIANNLANVSTNGFKRSRAVFEDLLYQTLRQPGAQSSQQTQLPSGLQLGTGVRPVATEHIFTQGNLQQTGNSKDVAIQGQGFFQVLRPDGSTAYTRDGSFQTDFEGQLVTSSGYHVQPAITIPPNAQSITVGRDGIVSVTTQDSTTPVQVGNLQLATFINPAGLQSVGENLYVETASSGTPNVTNPGTDGAGLLNQGYVETSNVNVVEELVNMIQTQRAYEINSKSVQTSDQMLQRLTQL", "soluble on expression in E. coli": "not soluble"},
      {"sequence": "MSKHTLIRRAVLEKLESVTGAPVTLFDGLPAFVEQEDLPAIAVWLTDAQYTGLMTDEDDWQATLHTAVFLRAQAPDTELDIWMEEKIFPALEEVSGLERLIDTMTPLGYDYQRDSEMATWGMAEITYRITYTN", "soluble on expression in E. coli": "soluble"},
      {"sequence": "MGSDKIHHHHHHMREAVMCRFVAYLGRPTLLENVLVRPKNSIIMQSLHARETKYRTNGDGFGLGWYSPEVSSDPALFTSVYPAWNDRNLLHLTAKIQSPCFFAHVRSASAGGVTNYNCHPFIYGDWMLMHNGEINDFIDVKRHIRHLLDDDIYHWVKGQTDSEHLFGLFLQLAKGRDITQLSVAADVLQETINKILEVIGQFGHSGPSYFNICLTNGKKIIATRYCSHEKKKPLTLHYLIGYVLSTQGLWIKEEGNPAYVVVSSERLNDLDEGWEDVPPQHMILIDENKNIQLRPLQTLG", "soluble on expression in E. coli": "not soluble"},
      {"sequence": "MPKWGNINERRNQLHEVIRLSGMNLIIDDTDHPLIIKVASIQSARMQVYFIDNDDYFQNRLQTADENGVEYDDNDSRAIFYARGVLETVKKLRWCPDVIHCHGWMTALAPLYIKKAYKDEPSFRDAKVVFSVYEDDFKNTLSEDFATKLMLKGITKKDLAGLKEPVDYAALCKLAVDYSDGIIQNSAKVDESIIEYARQSGKLVLDYQDPENYANACNEFYDQVWETTTNKEEELEHHHHHH", "soluble on expression in E. coli": "soluble"},
      {"sequence": "MNILGIETSCDETSAAVLSDGSVRSNIVSSQRCHTDFGGVVPELASREHERLIVSIVDAAITEANIAKNDLDVIAATAGPGLIGAVMVGLCFAEGLAWALGKPFVPVNHVEAHIFSPFISDEPGHREPKGDFVSLTVSGGHTLLSVVRQDLGYEVIGRTIDDAAGEAFDKTGKMLGLGYPAGPVIDRLAREGDSDFHRFPRALTASSQTSKSYRGNFDFSFSGLKTSVRTWLEAHDSEYVQKHQADLAASIQSAIVEVLVEKSVAAALLHKVNAISVAGGVSANSGLRSAMQAACDRHGIELFIPALAYSTDNAAMIATMAQLMIARGKYRIEDNSYGVAPFARFEAARKGAR", "soluble on expression in E. coli": "not soluble"},
      {"sequence": "MNATAVAAAATGRQLHKFGGSSLADVKCYLRVANIMANYSHPGDLMVVSAAGSTTNQLISWLKLSQNDRLSAHQVQQSLRRYQHDLINGLLPPEMAEPLISEFIHDLERLAGLLDNKIDDVIYAEVVGHGEIWSARLMSALLNKLDMDAVWLDARRFLRAERAAQPQIDESRSYPLLQQLMAQHPHQRLVVTGFISRNEAGETVLLGRNGSDYSATQVGALAGAERVTIWSDVAGVYSADPRKVKDACLLPLLRLDEASELARLAAPVLHTRTLQPVSGSDIDLQLRCSYQPEQGSTRIERVLASGLGAKIVTSHDDVCLIELQIASHHDFSLAQKEIDLLLKRAQIKPLATGIHPDRNLLQLCYTSEVVNSALRVLEDAALPGKLSLREGLALVALVGAGVSKNPLHSHRFYQQLKDQPVEFVWQAEDGISMVAVLRLGPTEHLIQGLHQSLFRAEKRIGLMLFGKGNIGARWLELFAREQKSLSARSGFEFVLAGVVDSRRSLLSYDGLDASRTLAFYNDEAKEQDEESLFLWMRAHPFDDLVVLDVTASPSLAEQYLDFASYGFHVISANKLAGASSSNNYRQIRDAFAKTGRHWLYNATVGAGLPVNHTVRDLRDSGDSILAISGIFSGTLSWLFLQFDGSVPFTELVDQAWQQGLTEPDPRVDLSGQDVMRKLVILAREAGYDIEPNQVRVESLVPAGAESGSVDQFFENGEALNQQMIQRLEAAKEMGLVLRYVARFDANGKARVGVEAVRTDHPLASLLPCDNVFAIESRWYRDNPLVIRGPGAGRDVTAGAIQSDLNRLSQLL", "soluble on expression in E. coli": "not soluble"},
      {"sequence": "MSLADFLRHRREALRPEDVGLSPGARRRARGLRREEVAALALMSTDYYTRLEQRRGPQPSERMLDSLARALRLTRAERDYLYRVAGHNAPASLSDPSPVAPALLRVLDRLDDTPALILTELGETLVQNRMAVALFGDASRHTGLARSAVYRWFTDPSERSVYPESDWGRQSRAQVANLRAAYGMRGARSHAGALVRILQQSNEEFAELWERHEVAQRFEDHKTLIHPEVGAIEVDCQALFTEDQSQTLLVLTAPPRTESHEKLQLLAVLGLHRFTEAEDQVREGHHHHHH", "soluble on expression in E. coli": "not soluble"},
      {"sequence": "MDAVQELERRIVELEIQSALQEDVIAGLNAMVAELRQTLDLQQAQLRLLYQKMQDRNPDAQEPYSLRDEIPPHY", "soluble on expression in E. coli": "not soluble"},
      {"sequence": "MKSEEAYSILDIVSESEGQGVVLTRSGSICVSFELREPECYSLTPEDIDRRDGMFREAFKFLPDGTYVHKQDVFLKERYCPDIAGGSFLDRADARHFRGRLYVSHTCVMHFVLSGLKSLEKAYISSPLSYKENLHKEDLARLDEFLEGVDNAVGIIRSMRDTEIAPMSGQEMRDFTAGYTTLFDAPGAVVDIHADTELRTGKKRARCFAVCDEIFLPDGSLDSCVRDDSLPPAGSLLYHPMLERLGMYLPYNHIVNQVVFFEGNGRLRERIARNIDIYGSNSGMSRSIKVQYQKLDELQQEILEENETLVRSFFSVCVFDESEAELEKADKKIRETLNLARLGYYIPGYENLAAVHFACVPGQIHLMPRKYLFLTTLPIALCFFLQCGSFRNDSEGIYVHDRMYQVPLRKDIWDAGKKRVNARNGMVIAGTGGGKSAFTLNLTQQLIEQDYTVVVVEFGKSFSQLCRLYPDISLHVDYDGRTALGINPFDLQGEELDNGSIEMLSGVVQKYWRHMFTKDESEKEVALTRFIQDYYENVREGHNFESFYNHVTEHYPEILARKHIPKDYFSLESFSLNCGEFLPGRRYENVCKDTGTDFSGKRFIVFELTQIKQDRFLSNLVMGMIFTVIQKKLLSDRRKRGVLIFDEYGETAQMVDTATGTGIHSSVAFCYQKIRKENGAVYTIIQNPDQLPENEHTKNIIANTDMLFVLPTKEVIYQSVIDRFRLTHPGQIALMKSMRNNFSGQRPYSECFMRLGEHYATVTRLEFSREKFLAFQTEGEIWSDLEEKNRRMSMEDAIEEYIREHQ", "soluble on expression in E. coli": "not soluble"},
      {"sequence": "GGGVMHYTDKAALPADGEAREVAALFDTWNAALATGNPHKVADLYAPDGVLLPTVSNEVRASREQIENYFEMFLTKKPKGVINYRTVRLLDDDSAVDAGVYTFTLTDKNGKKSDVQARYTFVYEKRDGKWLIINHHSSAMPEVDTATATAAVTKAK", "soluble on expression in E. coli": "soluble"},
      {"sequence": "MGSDKIHHHHHHMNTTQELHVIFGTGPLAQAVMRELLARNKRVRMINRSGKADIPSSVEIIASDAYNSENTRAVTTGATVVYQCAQPAYTQWPELFPSLQASIVEGVAANGAKLVVGDNLYMYGPVNGVLREDMPNAATTRKGRVRGQMTEALLDAHRRGIVRVAIGRASDFYGPLVLDSVMGDRIFPSVLTGKPASAIGEIDLPHTYTFIDDFGKALVVLGEEDKALGQIWHVPNAETITTRQFITIAFEEAGYPPKISKMGKFMMRLGGIFIPEARETVEMMYEFDEPFVVNHDKYVQAFGNHATPLREAIRHTLKWYSEHLKTLKT", "soluble on expression in E. coli": "not soluble"},
      {"sequence": "MPTSNTAFLIQNLPASRTAPHYRAGLDPVKGGLALQRSGGRVYISLLMGKRGFLRREASPKEVLEHCLRLAREVAPPTPKGKRGRPWRYSHALYLALLLFRAFFHLTYRETEASLQDLMEGPFPSHQSLARYALKHLDPKLLEALLERLSRELEAHLAPESSPEGEAASDEAPAHLAALSPP", "soluble on expression in E. coli": "soluble"},
      {"sequence": "MGHHHHHHSHMLFSRIFMAGAPKFIKQLLLDLRNEIYCTILIVGDFNAPLTALDRSSRQKVHKETMGLHCILEQMDLTYIYRTFHPTTAEYTLFSSAHGTFFKIDHIIGHENKSQ", "soluble on expression in E. coli": "not soluble"},
      {"sequence": "KLLAITSCPNGIAHTYMAAENLQKAADRLGVSIKVETQGGIGVENKLTEEEIREADAIIIAADRSVNKDRFIGKKLLSVGVQDGIRKPEELIQKALNGDIPVY", "soluble on expression in E. coli": "soluble"}
    ]}
  ]
}
